Results: article PMC12720113, “The binding mechanism of a novel ferrous ion chelating peptide from chicken blood hemoglobin and the bioavailability of the chelate” (Food Chemistry: X, 2025)

Tested on: Caco-2 cells
Test: Caco-2 cell viability assay (MTT)
Assay type: cell-based
Conditions: 24 h, 490 nm, means ± SEM
Description: Caco-2 cell viability assay was conducted on […]-Fe according to the method of [Wu et al. (2019)]. And lactoferrin was chosen as an experimental control. When the cell fusion rate was close to 80 %, the cells were dissociated and passaged using the trypsin-EDTA mixed digest. Cultivate the 23rd generation of cells in the logarithmic growth phase at 37 °C and 5 % CO₂ for 24 h. Then, a gradient concentration of […]-Fe and Ac-[…]-Fe was added to the wells of the experimental group, and all the samples were incubated for 24 h. After incubation, 20 μL of MTT reagent was added to each well. After 2 h of reaction, 150 μL of DMSO was added and agitated for 10 min. The absorbance values at 490 nm were measured to reflect cell activity levels. Cell relative activity (%) was calculated:(3) Relative cell viability%=As−Ab/Ac−Ab×100 where: As represents the absorbance value of the sample treatment, Ab represents the absorbance value without cells, and Ac represents the absorbance value without sample treatment.

B1: lactoferrin (protein, UniProt P24627 20-708, looked up)
Lactotransferrin: APRKNVRWCTISQPEWFKCRRWQWRMKKLGAPSITCVRRAFALECIRAIAEKKADAVTLDGGMVFEAGRDPYKLRPVAAEIYGTKESPQTHYYAVAVVKKGSNFQLDQLQGRKSCHTGLGRSAGWIIPMGILRPYLSWTESLEPLQGAVAKFFSASCVPCIDRQAYPNLCQLCKGEGENQCACSSREPYFGYSGAFKCLQDGAGDVAFVKETTVFENLPEKADRDQYELLCLNNSRAPVDAFKECHLAQVPSHAVVARSVDGKEDLIWKLLSKAQEKFGKNKSRSFQLFGSPPGQRDLLFKDSALGFLRIPSKVDSALYLGSRYLTTLKNLRETAEEVKARYTRVVWCAVGPEEQKKCQQWSQQSGQNVTCATASTTDDCIVLVLKGEADALNLDGGYIYTAGKCGLVPVLAENRKSSKHSSLDCVLRPTEGYLAVAVVKKANEGLTWNSLKDKKSCHTAVDRTAGWNIPMGLIVNQTGSCAFDEFFSQSCAPGADPKSRLCALCAGDDQGLDKCVPNSKEKYYGYTGAFRCLAEDVGDVAFVKNDTVWENTNGESTADWAKNLNREDFRLLCLDGTRKPVTEAQSCHLAVAPNHAVVSRSDRAAHVKQVLLHQQALFGKNGKNCPDKFCLFKSETKNLLFNDNTECLAKLGGRPTYEEYLGTEYVTAIANLKKCSTSPLLEACAFLTR
notes: conventional iron supplement, experimental control
Caco-2, 0.125 mg/mL
  Relative vitality of cells (%): 92.86 ± 1.03%
Caco-2, 0.25 mg/mL
  Relative vitality of cells (%): 81.43 ± 0.94%
Caco-2, 0.5 mg/mL
  Relative vitality of cells (%): 77.76 ± 1.27%
Caco-2, 1 mg/mL
  Relative vitality of cells (%): 74.83 ± 0.84%
Caco-2, 2 mg/mL
  Relative vitality of cells (%): 66.90 ± 1.42%
